These results are taken from the domain aggregation screens of Martell et al. (2025).

The data set in a line: soluble fraction after stress (log2 fold change); higher = more stays soluble; pooled small domains, quantitative proteomics. To be noted: stress: pH 4. The method in brief: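 After pH 4 stress, pooled custom libraries of small protein domains were quantified with high-throughput quantitative proteomics. Aggregation propensity is taken from the fold change in each domain's soluble amount following the acid stress. The scale is log2, where higher values mean more stayed soluble.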
On to “HMLEVTQTDVKMYTTSGTPVYAAPDLNSAIVVYLERFVNVTVTGITDNGFYRVNLNGDYYIPGPYLISSV”, for which the “soluble fraction (log2)” value was -0.759.

With “HMLEYIEPRTAVQIHGIKAKPELNGKRGMVMGYAPERMRYRVRIDVGEGTGGKESEEVYLKPENVIAVK”, the “soluble fraction (log2)” value came to 0.101.

Turning to “HMLFKGDTREENVILEFLSKNGTTSSDAIIKQTGLSASEFNQAITMLELKGLALNNGGEKWSL”, the “soluble fraction (log2)” value was -0.0366.

“HMLGDAVLRQVLETIPEDPAVDYLELRRNTGMTEADLDRVLADLENLGVINKKRTVEQVLYWRT”: the “soluble fraction (log2)” value was -1.44.

“HMLGDAWSMLILRDAHSGFSRFDQFRKSLGIAPTMLTKRLSVLVDEGLLEKRQYSEHPPREEYVLTQAGQD”: the “soluble fraction (log2)” value was 0.149.

Take “HMLGERIRTLRKEIGMSVTELARRVKTSPSHISEIERGEKMPSLNLLVKIAKELKTSIDYLTGLVG”: the “soluble fraction (log2)” value is -0.487.

Turning to “HMLGNIERALEMLQEVAATMDPVDIRLLLSMAQVESVRGNTEAAVKLIDEALVIDPGNERIEQIRLRVL”, the “soluble fraction (log2)” value is -0.869.

For “HMLGRPDMSPIPEGSRNNDLHAWGFGRLANHPDNKRQIEADFFERGRISGLGDAEIRASWNSILRQLGHQ”, the “soluble fraction (log2)” value stood at 0.276.

For “HMLGSVRTIRQVLDDGRLIVADGGGNPSVIRRSGALAHETFANGQRVIVDPSGRLALELLPD”, the “soluble fraction (log2)” value came out at 0.315.

For the sequence “HMLGVLEYYNNGQKKSERTFKGGMQIYTEWYENGQMKAEERKWIDQLGSLKFLNLLSTEWDENGNEISRME”, the “soluble fraction (log2)” value was -1.28.

As for “HMLGYGEQEREAQKYLEMHTAFQADPSLQKMYLPENQYALISKVMEMTGIKNVKSYLTPPNEL”, the “soluble fraction (log2)” value is -0.236.

Take “HMLHVRSALMSELDGIEGIGEKRKRLLFDAFITRDAIAAATLEQLMAVKGMNRPSAEAVHKHFHG”: the “soluble fraction (log2)” value turned out to be 0.203.

For “HMLIELKIPSEWAGKSLHTLNLRQNYNVNVIGFRDEKSGKLNTHFDPSKKLPDEGIILVVADNRTLEKF”, the “soluble fraction (log2)” value was -0.451.

Take “HMLIIDLPDFTNKKLSELQQWADANQITLKIVEKDVSSKPYDTILEQTPAKNKYEKIVKGSTMTVTVNIK”: the “soluble fraction (log2)” value is -0.272.

As for “HMLINFPNKLKRLRLANNLTQQELANILETTKQAVSSYESGKSTPSLNSLIKLSEHFNISLDSLVFD”, the “soluble fraction (log2)” value was -0.446.

For “HMLINIKTNSAVNVRSGPGMGFEVVNTYPSGYILQAKEMQKDGGDNVWYKVKDGWLSANYTIDI”, the “soluble fraction (log2)” value was 0.394.

As for “HMLINPLDILRNFNLSLYDDSRDSASNKEIDEIFESIKTNNSHIFSTLKAYRIPLPIASLIIKKIIKITLE”, the “soluble fraction (log2)” value is -0.882.

Regarding “HMLISDENMLRDLVQAVLDENPKSVSDYKSGKTKAFGFLVGQTMKAVKGQADPMLVNKILTELLN”, the “soluble fraction (log2)” value is -0.0698.

With “HMLISYRVDALANEAGLSVDTIRYYQKLGILDPPKRTGRHSEYSPDHLERLIEIRRLADAGLTLSQISEI”, the “soluble fraction (log2)” value was -2.33.

“HMLKAKKIPVSDLEKFKGIVAEDVVSKAKALILPRGSNLSWLSNVAKKNLIAKLKAEGIEYISVYSS”: the “soluble fraction (log2)” value was 0.0669.

In the case of “HMLKDGPIGAYADSVIRDIIEKMERFSKEHINVDMLKIHEKIMLIDEPIIRMALLDEFHRVSHDN”, the “soluble fraction (log2)” value is -1.2.

In the case of “HMLKEKETRALANFTNKFFGLDISEDLKPIALSELSKFKKTHKISNLEEFINSFQYDFQNEKILSLLDIFL”, the “soluble fraction (log2)” value is -0.879.

With “HMLKFPIGTHVGKKKPSANLSLPNKHGVVIGHGERRNAKGAIMRFYIVETTHSSRPEEWAPGITYPL”, the “soluble fraction (log2)” value is -0.275.

Turning to “HMLKHEEIQEYIKEQINSGTWKPKAKLPSLRDMSELFSTSIGTVLTAYSALEKKHIIYSIPRSGYYVLG”, the “soluble fraction (log2)” value was -0.334.

Take “HMLKLEDIKKDAQVKGIVDGQIVRIVTVEPIGDHALTVYYKDHQGQFAERMLFRSDELNLELATA”: the “soluble fraction (log2)” value is -0.64.

As to “HMLKLSGEESQQLALRLREELARRRITRQGLADAAKISISTLEQVLAGRRTFTLATIVRLEEGLGIKLL”, the “soluble fraction (log2)” value is 0.387.

Consider “HMLKNKSTGNINETKAILELALNHSHFKVFDNRDMTVTFKNLATQFTTMQRILVQMFFPLPAGVELIIE”, for which the “soluble fraction (log2)” value was 0.268.

For “HMLKNYATPEQRAQLDMLKDKGIIGENELMQLGKYPSQDKASEVLENHADAVKMLDSDEISNRAEAIRSHD”, the “soluble fraction (log2)” value is 0.22.

“HMLKPQQTQRIYAMAARLGVLESGNKNDMLHTIVYRLTQKESIRSLNENEYKTVVSELAERLKL”: the “soluble fraction (log2)” value is -0.917.

For the sequence “HMLKQLGRQEGRQEGAVDALRTVLALQIEQRFGPLDPTVQALIVAADIDALQRALSRVAVVSDLGAVFPP”, the “soluble fraction (log2)” value is -0.862.

As for “HMLKRLTVEFSAEMPKKMTSEQKEELASVLSEDPRPAYQNDENREYGLDYGEFSVKFKVKDGVLTVTSVTE”, the “soluble fraction (log2)” value turned out to be 0.226.

In the case of “HMLLNLSPIETQVLRLIQQDKKVTYESIGKELTIGQTKVYKVLGHLKELNVIERIGGRTYGHWHILL”, the “soluble fraction (log2)” value was -0.599.

“HMLLNPFERLTERELEIADLYAKGYGNLEIANFLSIKQNTVSTYKKRIFEKLGIDNLVELIELIKNY”: the “soluble fraction (log2)” value is -0.839.

In the case of “HMLLQTRQRHEALAALGYFKGDVAAAWGPASEEALRAAQAAFGITVDGKWGPQTEDAIQGALQV”, the “soluble fraction (log2)” value was -0.701.

“HMLLREKLESVLPFISVSALAKTYFKRSPQWFYQRLNGSIVNGKPIRFNDAELKTLAGALTDIGKKISQAA”: the “soluble fraction (log2)” value is 0.157.

Take “HMLLSEPSVLKFNDDNSYEIVSGFLTEYKDKIVKIERRYKKATVKITVAGEEKEIKVSFVEDTE”: the “soluble fraction (log2)” value was -1.13.

Consider “HMLLSTHVVVAKEDVQIGTRLQPAMLQVVDWPSASPLKNPLTSIEQATDRVVNMPLVKGEPISMSKLAAKG”, for which the “soluble fraction (log2)” value came to 0.0815.

As for “HMLLTASNYFKETKGINFSELPEALQKGHSFVIKSTENGTNWNAYSTSQNIQRVIDAYFSKLDEYLEKNQ”, the “soluble fraction (log2)” value is -0.202.

In the case of “HMLLTHEEQIVKRGWQAPVGPFAILDSRAEAMHGDLEMLRGDREAAEQHFRRAWQIIGPIVEQ”, the “soluble fraction (log2)” value stood at 0.0572.

With “HMLMKILTDALEKMSPEELKELAEATGVKNTSSITPETMVGVFQAVFRVGGFKSYQLTLIIVNAVLKA”, the “soluble fraction (log2)” value is -0.398.

On to “HMLMRKAEVGVESLNLRHGPGTQYKVLEILPGGKSLHYLAEPRRGWVRVTTEEGTTGWTFLKFLKPE”, for which the “soluble fraction (log2)” value is -0.0205.

On to “HMLNENNHGEWSIRMSNGLVVRLGRDELNRSLRRSIMAYAGLAPNYRSSIEYIDARYLGGVALKTF”, for which the “soluble fraction (log2)” value is -0.159.

On to “HMLNKRQAEILAEVSRLKEITPSELYKLQPNVSSRTLRRDMDVLVNKGLVSQDGSTKSTKYTYL”, for which the “soluble fraction (log2)” value was 0.102.

Turning to “HMLNMTLGDRIRSRREELRMSQEELATRLGYKSRSTIAKIESGENDLTQSKIVAFAEALSTTARWLLDY”, the “soluble fraction (log2)” value was 0.0651.

With “HMLNVNDVIARNVRAARERKKLTLDGAAELTGVSRSMLAQIEKGEVNPTISVVWKIANGFKVSFTSLVEPQ”, the “soluble fraction (log2)” value was -0.0104.

“HMLPAGSDAILRYLSSGAVKGIGVATAARIVEKFGDETLRILEEEPGRLAEIKGITAAKAKAIGEAFAGQ”: the “soluble fraction (log2)” value is -0.143.

Regarding “HMLPELIVTTKKGVTVTVTNGVITYSATSNGKATFTVPNYGKWTVSATINGTVISKVVDVTEAKQIPVLLG”, the “soluble fraction (log2)” value is -0.318.

In the case of “HMLPERIQTIVALIGHGRAMDLVREFGGQEIKFPAQEGNDTWAALVEVIGEAATRKLAAVFGGGQAPPVYI”, the “soluble fraction (log2)” value was -0.593.

In the case of “HMLPGVPVVAGKTQSAATRILKAAGYAVSVVREEAFDGVTGTVLRTSPEAGSPLAPGSRVTLVVLQVV”, the “soluble fraction (log2)” value was -0.114.

Turning to “HMLPGWMETKFTANVSENTKNRTLEEHVLKMLNNKESAAEFIIFLHEKMMSVSGQVFQLDSR”, the “soluble fraction (log2)” value was -0.0998.

With “HMLPIGSSREQVISSLNKMHQDYKEEGNFIYAGYFKQGLPLVPSPRISIALQFNETAHLEKIDATLNYV”, the “soluble fraction (log2)” value is -0.467.

“HMLPKLAEEYAIMEIRGKGENLTAKLINKGGDSFMVRNGTVLQTGHRIDEITQTYVRAEINGMKDYLYFA”: the “soluble fraction (log2)” value was -1.44.

Turning to “HMLPLLAFDEKLNRLGYGGGFYDRTLASLAHKGNTITAIGIAYESQKMDKVPTGYFDRPLDGVLTPSGLIM”, the “soluble fraction (log2)” value was -0.0764.

For “HMLPNLWVMGPGDHLWRVAEVAMTKHLGRPVANHEIDGYWRRLVALNRESLIDPDNPDLVFAGQVIELPPF”, the “soluble fraction (log2)” value was -2.2.

Take “HMLPQGKGTAMWLADHLAAASVTLDAGARKLLEDTLGEDMSRLPGVLRVLEATFGSDAGRLSAEDIEPFL”: the “soluble fraction (log2)” value is -1.05.

As to “HMLPRNKRIEIALTYIYGLGRHAATVVLKHANISPDKRTDDLDENDVRKLRDAIDANFRVEGDLRR”, the “soluble fraction (log2)” value is -0.0555.

Regarding “HMLPTVSITGHIFIRSGSPLNRIFVGEKIYHVGDHIDRDWVIESIGIDTLTIRSGTLSTQLPL”, the “soluble fraction (log2)” value turned out to be 0.034.

For “HMLPVFNYQVYRTHGLIYVYAKDNDSFDQIARSMGFKAKQLMKFNEVPEDFPLQAGDIVYLEKKKK”, the “soluble fraction (log2)” value is -0.368.

With “HMLPVLEIGTMIRIIRQPHFGTIARVVALPEELTKVESETLVRILDAEFDDGTRVRIPRANVEVIE”, the “soluble fraction (log2)” value is -1.37.

Take “HMLPYGDRRRHTDNTISRIRELAAALDDSGIADRLNQDGYVTPEGKPFTYAGVRWIRYKYDISGPYERN”: the “soluble fraction (log2)” value is -0.364.

For “HMLQKVELSDNEKFIFDSLQKEQKMALLRLKELVNLSNKAWDVSVKNLTKQGLVKVTKIDEELLIEI”, the “soluble fraction (log2)” value is -1.24.

With “HMLQPQMKKFLNYESARNKMRPFGLSTRKEWRLFVDEGNRPADIPGDPYKKYKNKGWISWPHFLGK”, the “soluble fraction (log2)” value was 0.0515.

For “HMLRDTTLLHIDSIVRDGSTAMANITVRDEGTDLEFPLQLRMERGDMGWQVVRIVNYRAYLEAVQKA”, the “soluble fraction (log2)” value is -0.59.

On to “HMLRGKNALMSQLDQIQGIGPKRKRALFNHFLTLDAIKQADVETLRQAPGMNLPAAEQVYRHFHM”, for which the “soluble fraction (log2)” value was 0.144.

Turning to “HMLRIIDYNRVVKDLNGLTPEQLLEKLAESFTVEDKGTEEYRPTELHNFSMYLGGHWYSLTAKPGTYDDND”, the “soluble fraction (log2)” value was -0.926.

For the sequence “HMLRMTRNRQKLVEVLMESGRPLSADEIREAAGFASTDLVTVYRNLEAFQSAGLLQRIPLENGSQLFELT”, the “soluble fraction (log2)” value was -0.269.

As for “HMLRNDEAVMLGRRLLNKHLQAFSVQIKDISHQRIHDLLDELELESLDHLLDDIGLGNRSVFLVAQKLLQ”, the “soluble fraction (log2)” value is -1.25.

Turning to “HMLRQRVFRIIQNNINSKNYFVYTKQILAELAGISMRSLNRTLSELQNDRLIIVDSGTIRLFT”, the “soluble fraction (log2)” value was -0.824.

In the case of “HMLRVGASVTANGKYWYDSYGSKPFGTANNLSTTVTRIVPGNPYPIHIGSYGWLQESQIQIT”, the “soluble fraction (log2)” value worked out at 0.204.
